How the values were obtained:
[1] = molecular target: semisynthetic H3K4me3 nucleosome (internal standard ladder) (human) (UniProt Q71DI3); experiment: ICeChIP-qPCR, capture of barcoded nucleosome standards doped into mESC nucleosomes
[2] = molecular target: semisynthetic H3K36me3 nucleosome (internal standard) (human) (UniProt Q71DI3); experiment: as above
[3] = molecular target: unmodified nucleosome (internal standard) (human) (UniProt Q71DI3); experiment: as above
[4] = molecular target: semisynthetic H3K27me3 nucleosome (internal standard ladder) (human) (UniProt Q71DI3); experiment: multi-standard ICeChIP-seq, six nucleosome ladders doped equimolar into mESC nuclei
[5] = molecular target: semisynthetic H3K9me3 nucleosome (internal standard ladder) (human) (UniProt Q71DI3); experiment: as above

H3K4me3 antibody (Active Motif AM39159)
apparent specificity (on target signal against H3K36me3 nucleosome) [1]: 30 fold | enrichment (internal standard, ICeChIP-qPCR) [1]: 81 | enrichment (internal standard, ICeChIP-qPCR) [2]: 2.8 | enrichment (internal standard, ICeChIP-qPCR) [3]: 1.9

H3K9me3 antibody M309M3-A (Hattori et al., 2013)
percent of the on-target signal [4]: 10%

H3K27me3 antibody (Millipore 07-449)
percent of the on-target signal [5]: 26%

Reference: patent US20200319204A1
